From IntAct's records for PubMed 12813456

B1: Protein E7 (Human papillomavirus type 16), P03129 (parent)
chain: MHGDTPTLHEYMLDLQPETTDLYCYEQLNDSSEEEDEIDGPAGQAEPDRAHYNIVTFCCKCDSTLRLCVQSTHVDIRTLEDLLMGTLGIVCPICSQKP

Variants of: B1
Details: with kat2b_human KAT2B

Row | Variant | effect of a mutation on the interaction
1 | L67A | decreasing interaction strength
